Assay [1] has as its target T1, coil C-mCherry-6xHis fusion protein (human).
T1 construct: also called mCherry-C; wild-type mCherry-C; not shown: mCherry red fluorescent protein fused to the C-terminal of coil C
T1 chain: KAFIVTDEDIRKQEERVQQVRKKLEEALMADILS
Kind of assay: ITC, C′-GFP injected into C-mCherry, PBS pH 7.5, 25 °C. How it is done:
ITC analysis was conducted using MicroCal Auto-iTC200 (Malvern Panalytical) at the Korea Basic Science Institute (Ochang, Korea). […] For titration, 2 μL of C′-GFP was injected to C-mCherry 19 times at 25° C. for 4 seconds, with 150-seconds intervals, and data were analyzed using the MicroCal Origin 7.0 software. N is the stoichiometric number, KD is the binding affinity, and AH and AS are changes in enthalpy and binding entropy, respectively.
A general note: Isothermal titration calorimetry measures the heat released or taken up as one component is titrated into another.

For assay [2], the target named is T2, C_Ala27 (A27C) coil C mutant fused to mCherry (human).
T2 construct: also called C half of Ala27-Ile8
T2 chain: T1 chain with A27C
Nature of the assay: FRET between GFP and mCherry, equimolar mixture, 4 µM, plate reader. The method, then: (§1) A sample of wild-type GFP alone or a mixture of C′-GFP/C-mCherry, Ala27-lle8 and Thr6-Arg29 in equimolar quantities was diluted appropriately with phosphate-buffered saline (PBS) to make a total volume of 200 μL and a concentration of 4 μM. The sample was transferred to a 96-well plate and the absorbance at 510 nm 488 nm and luminescence (fluorescence) of each well were measured with the Synergy H1 hybrid multi-mode microplate reader (BioTek). After calculating the luminescence (A) per unit absorbance of the wild-type GFP alone sample and the luminescence (B) per unit absorbance of each sample, fluorescence resonance energy transfer efficiency was calculated by the following equation.

In assay [3] the target is T3, C_Thr6 (T6C) coil C mutant fused to mCherry (human).
T3 construct: also called C half of Thr6-Arg29
T3 chain: T1 chain with T6C
Described as above. The method, then: as §1

Residue numbers refer to the chain shown, from its start. Names and notes keep the numbering of the source. Bounds are passed on as bounds.

B1: coil C′-GFP-6xHis fusion protein (other)
chain: PEERERMIKQLKEELRLEEAKLVLLKKLRQSQIQKEATAQK
notes: also called GFP-C′; wild-type GFP-C′; not shown: green fluorescent protein (GFP) fused to the C-terminal of coil C′
Usually Kd stands for the concentration at which binding is half-saturated. Low values mean higher affinity, high ones lower affinity. B1: in assay [1], binding was put at a Kd of 10.7 nM, the ΔH was -2.6 kcal/mol and the ΔS was -52.4 cal/mol/deg. For the molecule PEERERMCKQLKEELRLEEAKLVLLKKLRQSQIQKEATAQK (other, not shown: large carriers, not fully specified, also called 18C; C′ half of Ala27-Ile8) [C′_Ile8 (I8C) coil C′ mutant fused to GFP], in assay [2], the “FRET efficiency, fold against wild-type (GFP-C′+mCherry-C)” value was ≥ 2 fold.

Regarding PEERERMIKQLKEELRLEEAKLVLLKKLCQSQIQKEATAQK (other, not shown: large carriers, also called C′ half of Thr6-Arg29) [C′_Arg29 (R29C) coil C′ mutant fused to GFP], the “FRET efficiency, fold against wild-type (GFP-C′+mCherry-C)” value in assay [3] was ≥ 2 fold.

For the origin of these results see patent publication US20240277857A1 (NBIOS, published 2024).
